Data published in US6800470B2, “Mammalian sphingosine kinase type 2 isoforms, cloning, expression and methods of use thereof” (Sankyo Company, Ltd., priority 2000, dated 2004).
Positions count from the first letter of the chain named.

B1: mSPHK2 (Mus musculus) (protein)
chain: MAPPPLLPVAASTPILHGEFGSYPANGPRFALTLTTQALHIQRLRPKPEARPRDGLVSLDEVSGCGTLQSRSPEDTAAYFCIYTYPRGRRGGRRRATRTFRADGATTYEENRAEAQRWATALTCLLRGVPLSGDQEITPELLPRKPRLLILVNPFGGRGLAWQRCMDHVVPMISEAGLSFNLIQTERQNHARELVQGLSLSEWEGIVTVSGDGLLYEVLNGLLDRPDWEDAVRMPIGVLPCGSGNALAGAVNHHGGFEQVVGVDLLLNCSLLLCRGGSHPLDLLSVTLASGSRCFSFLSVAWGFLSDVDIHSERFRALGSARFTLGAVLGLASLHTYRGRLSYLPATTEPALPIPGHSLPRAKSELVLAPAPAPAATHSPLHRSVSDLPLPLPQPALVSPGSPEPLPDLSLNGGGPELTGDWGGAGDAPLSPDPLLPSSPNALKTAQLSPIAEGPPEMPASSGFLPPTHSAPEASTWGPVDHLLPPLGSPLPQDWVTIEGEFVLMLGILPSHLCADLMAAPHARFDDGVVHLCWVRSGISRAALLRILLAMEHGNHFSLGCPHLGYAAARAFRLEPLTPRGLLTVDGELVEYGPIQAQVHPGLATLLTGPAGQKPQA
notes: The open reading frames of mSPHK2 and hSPHK2 encode polypeptides of 617 and 618 amino acids, respectively; made in house; host or cells: HEK293 (ATCC CRL-1573), transient transfection; unpurified cytosol or whole lysate
B2: mSPHK2: murine sphingosine kinase type 2, polypeptide of 617 amino acids (SEQ ID NO 12) (protein)
chain: B1 chain with N252S, P510T, L548F

Experiments:
[1] = substrate: CCCCCCCCCCCCC/C=C/[C@@H](O)[C@@H](N)CO; assay: SPHK activity assay with recombinant mSPHK2 (cytosol/lysates of transfected HEK293 cells, [g-32P]ATP, TLC); type: biochemical, mouse; details: other: recombinant SPHK2
Method: HEK293 cells were seeded at 6×10^5 per well in poly-L-lysine coated 6 well plates. […] SPHK activity was determined in the presence of sphingosine, prepared as a complex with 4 mg/ml BSA, and [g-32P] […] 32P-SPP was separated by TLC and quantified with a phosphoimager as previously described.

mSPHK2 = molecular target: T1, mSPHK2 (Mus musculus, UniProt Q9JIA7); assay: as above; type: biochemical; details: cytosolic activity, kinase buffer of adjusted pH
T1 construct: The open reading frames of mSPHK2 and hSPHK2 encode polypeptides of 617 and 618 amino acids, respectively; made in house; host or cells: HEK293 (ATCC CRL-1573), transient transfection; unpurified cytosol or whole lysate
T1 sequence (Q9JIA7 1-617): B1 chain
Method: Lanes: 1, D-erythro-sphingosine (“D-erythro-Sph”); 2, D-erythro-dihydrosphingosine (“D-erythro-DHS”); 3, D, L-threo-DHS; 4, N,N-dimethylsphingosine (“DMS”); 5, C2-ceramide; 6, C16-ceramide; 7, diacylglycerol; 8, phosphatidylinositol; 9, phytosphingosine. Data are expressed as percentage of phosphorylation of D-erythro-Sph.
SPHK activity in HEK293 cell lysates after transfection as in FIG. 4A was measured with 10 μM D-erythro-sphingosine in the presence of increasing concentrations of DMS.
SPHK activity was measured with varying concentrations of D-erythro-sphingosine in the absence (open circles) or presence of 10 μM (filled squares) or 20 μM DMS (filled triangles).
FIG. 4D are Lineweaver-Burk plots.
In FIGS. 5B and 5C, the SPHK activity in HEK293 cell lysates was measured 24 hours after transfection with mSPHK1 (FIG. 5B) or mSPHK2 (FIG. 5C) in the absence or presence of increasing concentrations of NaCl (open squares) or KCl (filled circles).
FIG. 5E are Lineweaver-Burk plots of data from FIG. 5D.
HEK293 cells were transfected with mSPHK1a (open circles) or mSPHK2 (filled circles) and the activities of each in cell lysates were measured after 24 hours in the presence of the indicated concentrations of Triton X-100 (FIG. 6A) or BSA (FIG. 6B).
HEK293 cells were transfected with mSPHK1a (circles) or mSPHK2 (triangles) and the activities of each in cell lysates were measured after 24 hours in the presence of the indicated concentrations of phosphatidylserine (filled symbols) or phosphatidylcholine (open symbols). Data are expressed as percentage of control activity measured without any additions.
(§1) Human embryonic kidney cells (HEK293, ATCC CRL-1573) and NIH 3T3 fibroblasts (ATCC CRL-1658) were cultured as described in Olivera, A., Kohama, T., Edsall, L. C., Nava, V., Cuvillier, O., Poulton, S., and Spiegel, S., J. Cell Biol., 147 (1999) 545-558. HEK293 cells were seeded at 6×10^5 per well in poly-L-lysine coated 6 well plates. After 24 hours, cells were transfected with 1 μg of vector alone or with vectors containing sphingosine kinase constructs and 6 μl of “Lipofectamine PLUS” reagent plus 4 μl of “Lipofectamine” reagent per well. One to three days after transfection, cells were harvested and lysed by freeze-thawing as described in Kohama, T., Olivera, A., Edsall, L., Nagiec, M. M., Dickson, R., and Spiegel, S., J. Biol. Chem., 273, (1998), 23722-23728. In some experiments, cell lysates were fractionated into cytosol and membrane fractions by centrifugation at 100,000×g for 60 minutes. SPHK activity was determined in the presence of sphingosine, prepared as a complex with 4 mg/ml BSA, and [g-32P] ATP in kinase buffer (Olivera, A. and Spiegel, S. in Methods in Molecular Biology, (Bird, I. M. ed.), (1998), Vol. 105, 233-242, Humana Press, Inc., Totowa, N.J.), containing 200 mM KCl, unless indicated otherwise. 32P-SPP was separated by TLC and quantified with a phosphoimager as previously described.

HEK293 cells [2] = assay: Mass levels of SPP in HEK293 cells after transfection with SPHK2; type: cell-based, human; details: HEK 293 cells after transfection
Method: Mass levels of SPP in HEK293 cells transfected with an empty vector (open bars) or with mSPHK2 (filled bars) or with hSPHK2 (hatched bars) were measured as described hereinbelow. The data are expressed as pmol/nmol phospholipid.
Cells were washed with PBS and scraped in 1 ml of methanol containing 2.5 μl concentrated HCl. Lipids were extracted by adding 2 ml chloroform/1M NaCl (1:1, v/v) and 100 μl 3N NaOH and phases separated. The basic aqueous phase containing SPP, and devoid of sphingosine, ceramide, and the majority of phospholipids, was transferred to a siliconized glass tube. The organic phase was re-extracted with 1 ml methanol/1M NaCl (1:1, v/v) plus 50 μl 3N NaOH, and the aqueous fractions were combined. Mass measurement on SPP in the aqueous phase and total phospholipids in the organic phase were measured exactly as described in Edsall, L. C., Pirianov, G. G., and Spiegel, S., J. Neurosci., 17, (1997) 6952-6960; Edsall, L. C., and Spiegel, S., Anal. Biochem., 272, (1999) 80-86).

HEK293 cells [3] = assay: SPHK activity in HEK293 cells transiently transfected with SPHK expression vectors (cytosol and particulate fractions); type: cell-based, human; details: 24 hours after transfection of HEK293 cells
Method: In FIG. 3A, HEK 293 cells were transiently transfected with an empty vector or with mSPHK2 or hSPHK2 expression vectors. After 24 hours, SPHK activity was measured in cytosol (open bars) and particulate fractions (filled bars). The data are means±S.D. Parental and vector-transfected cells had basal SPHK activities of 26 and 37 pmol/min/mg, respectively.
as §1

Row | Molecule | Km [1] | pH of optimal activity (mSPHK2) | increase in SPP (HEK293 cells [2]) | increase of in vitro SPHK activity over basal levels (HEK293 cells [3])
1 | B1 | 3.4 µM | – | – | –
2 | B2 | – | 7.5 | 2.2 fold | 20 fold
